Where a SMILES comes first, the peptide text is derived from it. [ ]: non-standard residue; d: D form. Nle = CCCC[C@H](N)C(=O)O
Molecular target: human parathyroid hormone receptor 1 (hPTHR1) (human) (UniProt Q03431)
Experiment: cell-based or functional assay
Conditions: not given

IC50 (nanomolar value of the pIC50), antagonism of PTH(1-34)-induced cAMP response, GP-2.3 cells	pIC50, antagonism of PTH(1-34)-induced cAMP response (GloSensor), GP-2.3 cells	IC50 (nanomolar value of the pIC50), antagonism of PTH(1-34)-induced cAMP response, SGS-72 cells	IC50 (nanomolar value of the pIC50), antagonism of PTHrP(1-36)-induced cAMP response, SGS-72 cells	IC50, antagonism of PTH(1-34) (0.3 nM)-induced cAMP response, SGS-72 cells	IC50, antagonism of PTHrP(1-36) (0.3 nM)-induced cAMP response, SGS-72 cells	pIC50, antagonism of PTH(1-34) (0.3 nM)-induced cAMP response, SGS-72 cells	pIC50, antagonism of PTH(1-34)-induced cAMP response, SGS-72 cells	pIC50, antagonism of PTHrP(1-36) (0.3 nM)-induced cAMP response, SGS-72 cells	pIC50, antagonism of PTHrP(1-36)-induced cAMP response, SGS-72 cells	Compound
2.8 µM	5.55 -log M									Nle8, TMR, dW12, C35-bPTH(7-35)-1977 (peptide)
224 nM	6.65 -log M			4.39 nM		8.36 -log M				Nle8, dW12, W23, C37-LA-PTH(5-37)-1974 (peptide)
642 nM	6.19 -log M	21 nM	13 nM	24.1 nM	12.9 nM	7.62 -log M	7.68 -log M	7.89 -log M	7.89 -log M	PEG20-Nle8, TMR, dW12, W23, C37-LA-PTH(5-37)-1978 (peptide)
				1.49 nM		8.83 -log M				TMR-L11, dW12, W23-LA-PTH(7-36)-2002 (peptide)
				3.02 nM		8.52 -log M				TMR-Nle8, L11, dW12, W23-LA-PTH(5-36)-2000 (peptide)
				3.34 nM		8.48 -log M				TMR-Nle8, dW12, W23-LA-PTH(7-36)-1993 (peptide)
1.96 µM	5.71 -log M			18.5 nM		7.73 -log M				TMR-dW12, W23, C37-LA-PTH(5-37)-1976 (peptide)
160 nM	6.8 -log M			3.23 nM		8.49 -log M				TMR-dW12, W23-LA-PTH(5-36)-1953 (peptide)

Continued, compound first:

Compound	IC50 (nanomolar value of the pIC50), antagonism of PTH(1-34)-induced cAMP response, GP-2.3 cells	pIC50, antagonism of PTH(1-34)-induced cAMP response (GloSensor), GP-2.3 cells	IC50 (nanomolar value of the pIC50), antagonism of PTH(1-34)-induced cAMP response, SGS-72 cells	IC50 (nanomolar value of the pIC50), antagonism of PTHrP(1-36)-induced cAMP response, SGS-72 cells	IC50, antagonism of PTH(1-34) (0.3 nM)-induced cAMP response, SGS-72 cells	IC50, antagonism of PTHrP(1-36) (0.3 nM)-induced cAMP response, SGS-72 cells	pIC50, antagonism of PTH(1-34) (0.3 nM)-induced cAMP response, SGS-72 cells	pIC50, antagonism of PTH(1-34)-induced cAMP response, SGS-72 cells	pIC50, antagonism of PTHrP(1-36) (0.3 nM)-induced cAMP response, SGS-72 cells	pIC50, antagonism of PTHrP(1-36)-induced cAMP response, SGS-72 cells
Nle8, TMR, dW12, W23, C37-LA-PTH(5-37)-1975 (peptide)	3.61 µM	5.44 -log M	12 nM	10 nM	20.3 nM	9.71 nM	7.69 -log M	7.91 -log M	8.01 -log M	8.01 -log M
Nle8, dW12, W23, Y36-LA-PTH(5-36)-1954 (peptide)					1.75 nM		8.76 -log M			
TMR-L11, dW12, W23-LA-PTH(5-36)-2004 (peptide)					2.13 nM		8.67 -log M			
TMR-Nle8, L11, dW12, W23-LA-PTH(7-36)-1998 (peptide)					2.21 nM		8.65 -log M			
TMR-dW12, W23-LA-PTH(7-36)-1991 (peptide)					1.95 nM		8.71 -log M			

Molecular target: T1, endogenous hPTHR1 (Homo sapiens, UniProt Q03431)
T1 construct: Saos-2, in which is endogenously expressed the hPTHR1; endogenous in cells
T1 sequence (Q03431 27-593): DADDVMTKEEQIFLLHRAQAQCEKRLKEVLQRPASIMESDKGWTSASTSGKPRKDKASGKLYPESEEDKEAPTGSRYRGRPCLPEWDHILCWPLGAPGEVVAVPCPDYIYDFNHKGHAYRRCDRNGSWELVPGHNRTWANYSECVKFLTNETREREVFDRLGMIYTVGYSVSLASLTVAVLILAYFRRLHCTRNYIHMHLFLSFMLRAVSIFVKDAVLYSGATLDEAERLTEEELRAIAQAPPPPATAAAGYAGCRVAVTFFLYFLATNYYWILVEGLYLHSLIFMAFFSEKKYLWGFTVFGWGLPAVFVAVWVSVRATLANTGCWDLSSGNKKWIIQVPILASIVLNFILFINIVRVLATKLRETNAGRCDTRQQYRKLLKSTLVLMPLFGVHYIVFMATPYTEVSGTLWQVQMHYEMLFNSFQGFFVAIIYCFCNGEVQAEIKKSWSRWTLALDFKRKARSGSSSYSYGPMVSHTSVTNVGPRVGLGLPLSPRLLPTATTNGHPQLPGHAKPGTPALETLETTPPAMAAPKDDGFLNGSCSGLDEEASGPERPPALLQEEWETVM
Experiment: Antagonism of PTH(1-34)- and PTHrP(1-36)-induced cAMP response (GloSensor) in SGS-72 cells
Assay type: cell-based
Conditions: IC50 PTH(1-34) (Table 6, nanomolar value), antagonist pre-treatment 15 minutes, PTH(1-34) 0.3 nM
Description: cAMP signaling was assessed in the HEK293-derived or SaOS2-derived cell lines stably expressing the luciferase-based GloSensorTM cAMP reporter ([…] al., Paper presented at: Novel Signaling Mechanisms and Bone Cell Biology 2014; Binkowski et al., Methods in molecular biology. 756:263-271). HEK-293 cells were further transfected to stably express the hPTHR1, hPTHR1-H223R, or hPTHR1-T410P. The cells were seeded into 96-well white plates and were assayed 24 to 48 hours post-confluency. Assays were performed at room temperature in CO2-independent culture media (Life Technologies, Corp., Carlsbad, Calif.) containing 0.1% BSA (CIDB). The cells were pre-loaded with luciferin (0.5 mM in CIDB) for 15 minutes, then PTH peptides were added at varying concentrations. cAMP-dependent luminescence was measured at two-minute intervals using a PerkinElmer Envision plate reader. The time at which maximum luminescence (cps) observed with agonist alone, typically at 10-20 minutes after agonist addition, was used to obtain data from wells containing antagonist with or without agonist, to thus generate antagonist ligand dose-response curves. The resulting cps values were then plotted against ligand concentration using GraphPad Prism 7.0 software and a four-parameter logistics curve fitting equation, which yielded parameters of inhibitory potency (pIC50). Pharmacological properties of the ligands were assessed in cells expressing the PTHR1 and the GloSensorTM cAMP reporter. The assays used GP-2.3 cells, derived from HEK293 cells by stable transfection with the hPTHR1 and GloSensorTM, as well as SGS-72 cells, which are derived from the human osteosarcoma cell line, Saos-2, in which is endogenously expressed the hPTHR1, by stable transfection with GloSensorTM. Binding of representative polypeptides to the PTHR1 was assessed in GP-2.3 cells by radioligand competition methods (FIGS. 1A and 1B, Table 3). […] In Table 5, antagonist assays were performed in SGS-72 cells (SaOS2 cells with stable GloSensorTM cAMP reporter) at room temperature. […] The mean (±sem) concentration of antagonist that inhibited the maximum agonist-induced response observed in the absence of antagonist (at 40 minutes) is reported in units of -log M (pIC50), and the corresponding nanomolar value is shown below each pIC50 value. Data are means of the number of seven experiments. The PTH(1-34)-induced maximum luminescence was 500,000 cps and the basal was 5,000 cps. TMR indicates Lys13 modified at epsilon amino function with TMR. The data are illustrated in FIG. 7A. […] Date are means (±SEM) of the number of separate experiments indicated by n.

IC50	Compound
1.75 nM	CCCC[C@H](NC(=O)[C@H](CC(C)C)NC(=O)[C@H](CCC(N)=O)NC(=O)[C@@H](N)[C@@H](C)CC)C(=O)N[C@@H](Cc1c[nH]cn1)C(=O)N[C@@H](CCC(N)=O)C(=O)N[C@@H](CCCNC(=N)N)C(=O)N[C@H](Cc1c[nH]c2ccccc12)C(=O)N[C@@H](CCCCN)C(=O)N[C@@H](Cc1c[nH]c2ccccc12)C(=O)N[C@H](C(=O)N[C@@H](CCC(N)=O)C(=O)N[C@@H](CC(=O)O)C(=O)N[C@@H](C)C(=O)N[C@@H](CCCNC(=N)N)C(=O)N[C@@H](CCCNC(=N)N)C(=O)N[C@@H](CCCNC(=N)N)C(=O)N[C@@H](C)C(=O)N[C@@H](Cc1c[nH]c2ccccc12)C(=O)N[C@@H](CC(C)C)C(=O)N[C@@H](Cc1c[nH]cn1)C(=O)N[C@@H](CCCCN)C(=O)N[C@@H](CC(C)C)C(=O)N[C@H](C(=O)N[C@@H](C)C(=O)N[C@@H](CCC(=O)O)C(=O)N[C@H](C(=O)N[C@@H](Cc1c[nH]cn1)C(=O)N[C@H](C(=O)N[C@@H](C)C(=O)N[C@@H](CCC(=O)O)C(=O)N[C@@H](Cc1ccc(O)cc1)C(N)=O)[C@@H](C)O)[C@@H](C)CC)[C@@H](C)CC)[C@@H](C)CC [compound 1954, Nle8, dW12, W23, Y36-LA-PTH(5-36)] (H-IQL[Nle]HQR[dW]KWIQDARRRAWLHKLIAEIHTAEY-NH2; N-terminus assumed)
